Tested on: Escherichia coli TOP10
Test: shrunken log2 fold change of peptide-encoding DNA abundance (4.5 h post-induction vs induction); higher = less antimicrobial activity (less host growth inhibition)
Details: time post-induction: 4.5 h; library: site-saturation at positions 5, 18, 19, 20
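Also: peptides expressed intracellularly from a pBAD plasmid library in pooled LB shake-flask culture, induced with 0.3% L-arabinose, DNA abundance read by NGS, three biological replicates, DESeq2 with apeglm shrinkage.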

Sequence | shrunken log2 fold change
RRIRIRPPRLPRPRPRPNRTPRP | 0.101
RRIRIRPPRLPRPRPRPNTIPRP | -0.355
RRIRIRPPRLPRPRPRPNVAPRP | 0.00755
RRIRIRPPRLPRPRPRPNWHPRP | -0.227
RRIRIRPPRLPRPRPRPNYDPRP | -0.638
RRIRIRPPRLPRPRPRPNYGPRP | 0.0426
RRIRIRPPRLPRPRPRPPCIPRP | -0.0558
RRIRIRPPRLPRPRPRPPDDPRP | 0.494
RRIRIRPPRLPRPRPRPPEPPRP | 0.105
RRIRIRPPRLPRPRPRPPESPRP | 0.185
RRIRIRPPRLPRPRPRPPEVPRP | -0.173
RRIRIRPPRLPRPRPRPPEWPRP | 0.0764
RRIRIRPPRLPRPRPRPPGMPRP | 0.238
RRIRIRPPRLPRPRPRPPGWPRP | 0.527
RRIRIRPPRLPRPRPRPPHHPRP | -0.242
RRIRIRPPRLPRPRPRPPHRPRP | -0.144
RRIRIRPPRLPRPRPRPPKHPRP | 0.00437
RRIRIRPPRLPRPRPRPPKMPRP | -0.0476
RRIRIRPPRLPRPRPRPPKSPRP | -0.0284
RRIRIRPPRLPRPRPRPPLFPRP | 0.0406
RRIRIRPPRLPRPRPRPPLTPRP | -0.0194
RRIRIRPPRLPRPRPRPPMGPRP | 0.0153
RRIRIRPPRLPRPRPRPPMLPRP | -0.382
RRIRIRPPRLPRPRPRPPMQPRP | -0.193
RRIRIRPPRLPRPRPRPPNCPRP | -1.06

Sequence | shrunken log2 fold change
RRIRIRPPRLPRPRPRPPNKPRP | -0.36
RRIRIRPPRLPRPRPRPPQFPRP | -0.195
RRIRIRPPRLPRPRPRPPRDPRP | 0.203
RRIRIRPPRLPRPRPRPPRPPRP | 0.822
RRIRIRPPRLPRPRPRPPRRPRP | 0.396
RRIRIRPPRLPRPRPRPPRYPRP | -0.217
RRIRIRPPRLPRPRPRPPSIPRP | 0.122
RRIRIRPPRLPRPRPRPPTFPRP | -0.166
RRIRIRPPRLPRPRPRPPTQPRP | 0.215
RRIRIRPPRLPRPRPRPPVNPRP | -0.456
RRIRIRPPRLPRPRPRPPVSPRP | -0.116
RRIRIRPPRLPRPRPRPPVYPRP | -0.288
RRIRIRPPRLPRPRPRPPWEPRP | -0.21
RRIRIRPPRLPRPRPRPPWTPRP | 0.0205
RRIRIRPPRLPRPRPRPQASPRP | -0.0941
RRIRIRPPRLPRPRPRPQCDPRP | -0.205
RRIRIRPPRLPRPRPRPQCFPRP | 0.0204
RRIRIRPPRLPRPRPRPQCHPRP | -0.594
RRIRIRPPRLPRPRPRPQDWPRP | -0.344
RRIRIRPPRLPRPRPRPQGCPRP | -0.00156
RRIRIRPPRLPRPRPRPQKLPRP | -0.277
RRIRIRPPRLPRPRPRPQLGPRP | -0.0971
RRIRIRPPRLPRPRPRPQLMPRP | -0.442
RRIRIRPPRLPRPRPRPQPFPRP | -0.264
RRIRIRPPRLPRPRPRPQQYPRP | -0.808

Sequence | shrunken log2 fold change
RRIRIRPPRLPRPRPRPQRYPRP | 0.159
RRIRIRPPRLPRPRPRPQSIPRP | -0.0763
RRIRIRPPRLPRPRPRPQSWPRP | -0.0752
RRIRIRPPRLPRPRPRPQTCPRP | -0.141
RRIRIRPPRLPRPRPRPQWHPRP | -0.381
RRIRIRPPRLPRPRPRPQYEPRP | -0.184
RRIRIRPPRLPRPRPRPQYKPRP | -0.848
RRIRIRPPRLPRPRPRPRALPRP | 0.0988
RRIRIRPPRLPRPRPRPRASPRP | -0.195
RRIRIRPPRLPRPRPRPRCNPRP | -0.393
RRIRIRPPRLPRPRPRPRDQPRP | -0.0489
RRIRIRPPRLPRPRPRPRDYPRP | -0.14
RRIRIRPPRLPRPRPRPRFIPRP | -0.636
RRIRIRPPRLPRPRPRPRFKPRP | -0.575
RRIRIRPPRLPRPRPRPRHQPRP | -0.289
RRIRIRPPRLPRPRPRPRICPRP | -0.3
RRIRIRPPRLPRPRPRPRIYPRP | 0.00994
RRIRIRPPRLPRPRPRPRKKPRP | 0.247
RRIRIRPPRLPRPRPRPRKRPRP | 0.178
RRIRIRPPRLPRPRPRPRLYPRP | 0.0739
RRIRIRPPRLPRPRPRPRMCPRP | 0.242
RRIRIRPPRLPRPRPRPRMGPRP | -0.192
RRIRIRPPRLPRPRPRPRMHPRP | -0.0356
RRIRIRPPRLPRPRPRPRNDPRP | -0.543
RRIRIRPPRLPRPRPRPRPWPRP | 0.154
